This passage reports EC50 results from patent publication US20230395187A1.

This experiment addresses SARS-CoV-2 spike protein, delta (SARS-CoV-2) (UniProt P0DTC2). The experiment is described as follows: virus-free Luminex binding assay, spike on beads.

Usually EC50 stands for the concentration that produces a half-maximal response. Read a low EC50 as an effect from little substance.

Imdevimab (RGN87) (antibody) registered an EC50 of 0.17 µg/mL.
